Measurements taken from patent US20110091994A1, “Methods for Screening Compounds for Treating and/or Preventing an Hepatitis C Virus Infection” (priority 2008, published 2011).

B1: LMNB1 (protein, UniProt P20700 2-583, looked up)
Lamin-B1: ATATPVPPRMGSRAGGPTTPLSPTRLSRLQEKEELRELNDRLAVYIDKVRSLETENSALQLQVTEREEVRGRELTGLKALYETELADARRALDDTARERAKLQIELGKCKAEHDQLLLNYAKKESDLNGAQIKLREYEAALNSKDAALATALGDKKSLEGDLEDLKDQIAQLEASLAAAKKQLADETLLKVDLENRCQSLTEDLEFRKSMYEEEINETRRKHETRLVEVDSGRQIEYEYKLAQALHEMREQHDAQVRLYKEELEQTYHAKLENARLSSEMNTSTVNSAREELMESRMRIESLSSQLSNLQKESRACLERIQELEDLLAKEKDNSRRMLTDKEREMAEIRDQMQQQLNDYEQLLDVKLALDMEISAYRKLLEGEEERLKLSPSPSSRVTVSRASSSRSVRTTRGKRKRVDVEESEASSSVSISHSASATGNVCIEEIDVDGKFIRLKNTSEQDQPMGGWEMIRKIGDTSVSYKYTSRYVLKAGQTVTIWAANAGVTASPPTDLIWKNQNSWGTGEDVKVILKNSQGEEVAQRSTVFKTTIPEEEEEEEEAAGVVVEEELFHQQGTPRASNRSC
B2: CORO1B (protein, UniProt Q9BR76 1-489, looked up)
Coronin-1B: MSFRKVVRQSKFRHVFGQPVKNDQCYEDIRVSRVTWDSTFCAVNPKFLAVIVEASGGGAFLVLPLSKTGRIDKAYPTVCGHTGPVLDIDWCPHNDEVIASGSEDCTVMVWQIPENGLTSPLTEPVVVLEGHTKRVGIIAWHPTARNVLLSAGCDNVVLIWNVGTAEELYRLDSLHPDLIYNVSWNHNGSLFCSACKDKSVRIIDPRRGTLVAEREKAHEGARPMRAIFLADGKVFTTGFSRMSERQLALWDPENLEEPMALQELDSSNGALLPFYDPDTSVVYVCGKGDSSIRYFEITEEPPYIHFLNTFTSKEPQRGMGSMPKRGLEVSKCEIARFYKLHERKCEPIVMTVPRKSDLFQDDLYPDTAGPEAALEAEEWVSGRDADPILISLREAYVPSKQRDLKISRRNVLSDSRPAMAPGSSHLGAPASTTTAADATPSGSLARAGEAGKLEEVMQELRALRALVKEQGDRICRLEEQLGRMENGDA
B3: CTGF (protein, UniProt P29279 27-349, looked up)
CCN family member 2: QNCSGPCRCPDEPAPRCPAGVSLVLDGCGCCRVCAKQLGELCTERDPCDPHKGLFCHFGSPANRKIGVCTAKDGAPCIFGGTVYRSGESFQSSCKYQCTCLDGAVGCMPLCSMDVRLPSPDCPFPRRVKLPGKCCEEWVCDEPKDQTVVGPALAAYRLEDTFGPDPTMIRANCLVQTTEWSACSKTCGMGISTRVTNDNASCRLEKQSRLCMVRPCEADLEENIKKGKKCIRTPKISKPIKFELSGCTSMKTYRAKFCGVCTDGRCCTPHRTTTLPVEFKCPDGEVMKKNMMFIKTCACHYNCPGDNDIFESLYYRKMYGDMA
B4: CHPF (protein, UniProt Q8IZ52 1-775, looked up)
Chondroitin sulfate synthase 2: MRASLLLSVLRPAGPVAVGISLGFTLSLLSVTWVEEPCGPGPPQPGDSELPPRGNTNAARRPNSVQPGAEREKPGAGEGAGENWEPRVLPYHPAQPGQAAKKAVRTRYISTELGIRQRLLVAVLTSQTTLPTLGVAVNRTLGHRLERVVFLTGARGRRAPPGMAVVTLGEERPIGHLHLALRHLLEQHGDDFDWFFLVPDTTYTEAHGLARLTGHLSLASAAHLYLGRPQDFIGGEPTPGRYCHGGFGVLLSRMLLQQLRPHLEGCRNDIVSARPDEWLGRCILDATGVGCTGDHEGVHYSHLELSPGEPVQEGDPHFRSALTAHPVRDPVHMYQLHKAFARAELERTYQEIQELQWEIQNTSHLAVDGDQAAAWPVGIPAPSRPASRFEVLRWDYFTEQHAFSCADGSPRCPLRGADRADVADVLGTALEELNRRYHPALRLQKQQLVNGYRRFDPARGMEYTLDLQLEALTPQGGRRPLTRRVQLLRPLSRVEILPVPYVTEASRLTVLLPLAAAERDLAPGFLEAFATAALEPGDAAAALTLLLLYEPRQAQRVAHADVFAPVKAHVAELERRFPGARVPWLSVQTAAPSPLRLMDLLSKKHPLDTLFLLAGPDTVLTPDFLNRCRMHAISGWQAFFPMHFQAFHPAVAPPQGPGPPELGRDTGRFDRQAASEACFYNSDYVAARGRLAAASEQEEELLESLDVYELFLHFSSLHVLRAVEPALLQRYRAQTCSARLSEDLYHRCLQSVLEGLGSRTQLAMLLFEQEQGNST
B5: CCDC66 (protein, UniProt A2RUB6 1-948, looked up)
Coiled-coil domain-containing …: MNLGDGLKLETELLDGKTKLILSPYEHKSKISVKMGNKAKIAKCPLRTKTGHILKSTQDTCIGSEKLLQKKPVGSETSQAKGEKNGMTFSSTKDLCKQCIDKDCLHIQKEISPATPNMQKTRNTVNTSLVGKQKPHKKHITAENMKSSLVCLTQDQLQQILMTVNQGNRSLSLTENGKEAKSQYSLYLNSISNQPKDENIMGLFKKTEMVSSVPAENKSVLNEHQETSKQCEQKIAIENEWKPADIFSTLGERECDRSSLEAKKAQWRKELDEQVALKKKEKEVSEKWNDPWKKSESDKIIWEKHQILDQSRETVLLEHPFSAVKQELQRKWIEELNKQIEDDRQRKIEEKIIYSKGEEHDRWAMHFDSLKSYPGSQSQLFSQSTHKQPEYFCVSPDTQELADVSSVCTPTTGSQVEPSEEEHIAKPIKDVVMANSKKTNFLRSMTALLDPAQIEERDRRRQKQLEHQKAITAQVEEKRRKKQLEEEQRKKEEQEEELRLAQEREEMQKQYEEDILKQKQKEEIMTLKTNELFQTMQRAQELAQRLKQEQRIRELAQKGHDTSRLIKNLGVDTIQMEYNASNISNSRHDSDEISGKMNTYMNSTTSKKDTGVQTDDLNIGIFTNAESHCGSLMERDITNCSSPEISAELIGQFSTKKNKQELTQDKGASLEKENNRCNDQCNQFTRIEKQTKHMKKYPKRPDWNINKPPKRYIPASEKYPKQLQKQREEKKVRRQMELLHLVEKNNPGHLSQNRGISPEIFHSSHQETESKLRWHLVKKEEEPLNIHSFSKERSPSSPVPVVKNRTQQTQNTLHLPLKNSSYERENLISGSNQTELSSGISESSHFIPYVRTNEIYYLDPDAPLSGPSTQDPQYQNSQDCGQKRQLFDSDCVRDPLLNPNMVKNRDRQQAILKGLSELRQGLLQKQKELESSLLPLAENQEESFGSSF
B6: CCDC52 (protein, UniProt Q8N0Z3 1-855, looked up)
Spindle and …: MSFVRVNRCGPRVGVRKTPKVKKKKTSVKQEWDNTVTDLTVHRATPEDLVRRHEIHKSKNRALVHWELQEKALKRKWRKQKPETLNLEKRRLSIMKEILSDQYQMQDVLEKSDHLIAAAKELFPRRRTGFPNVTVAPDSSQGPIVVNQDPITQSIFNESVIEPQALNDVDGEEEGTVNSQSGESENENELDNSLNSQSNTNTDRFLQQLTEENFELISKLWTDIQQKIATQSQITPPGTPSSALSSGEQRAALNATNAVKRLQTRLQPEESTETLDSSYVVGHVLNSRKQKQLLNKVKRKPNLHALSKPKKNISSGSTTSADLPNRTNSNLDVLKHMIHEVEHEMEEYERWTGREVKGLQSSQGLTGFTLSLVSSLCRLVRYLKESEIQLRKEVETRQQLEQVLGDHRELIDALTAEILRLREENAATQARLQQYMVTTDEQLISLTHAIKNCPVINNRQEIQASESGATGRRVMDSPERPVVNANVSVPLMFREEVAEFPQEELPVKLSQVPDPPDNMNLAKNFPAHIFEPAVLLTPPRQKSNLKFSPLQDVLRRTVQTRPAPRLPPTVEIIEKEQNWEEKTLPIDTDIQNSSEENRLFTQRWRVSHMGEDLENKTQAPFVNLSQPLCNSHSNTQQSRSPTFSEELPVLGDGQQLRTNESLIQRKDIMTRIADLTLQNSAIKAHMNNIIEPRGEQGDGLRELNKQESASDMTSTFPVAQSLTPGSMEERIAELNRQSMEARGKLLQLIEQQKLVGLNLSPPMSPVQLPLRAWTEGAKRTIEVSIPGAEAPESSKCSTVSPVSGINTRRSSGATGNSCSPLNATSGSGRFTPLNPRAKIEKQNEEGWFALSTHVS
B7: CBY1 (protein, UniProt Q9Y3M2 1-126, looked up)
Protein chibby homolog 1: MPFFGNTFSPKKTPPRKSASLSNLHSLDRSTREVELGLEYGSPTMNLAGQSLKFENGQWIAETGVSGGVDRREVQRLRRRNQQLEEENNLLRLKVDILLDMLSESTAESHLMEKELDELRISRKRK
B8: CCHCR1 (protein, UniProt Q8TD31 1-782, looked up)
Coiled-coil alpha-helical rod …: MFPPSGSTGLIPPSHFQARPLSTLPRMAPTWLSDIPLVQPPGHQDVSERRLDTQRPQVTMWERDVSSDRQEPGRRGRSWGLEGSQALSQQAEVIVRQLQELRRLEEEVRLLRETSLQQKMRLEAQAMELEALARAEKAGRAEAEGLRAALAGAEVVRKNLEEGSQRELEEVQRLHQEQLSSLTQAHEEALSSLTSKAEGLEKSLSSLETRRAGEAKELAEAQREAELLRKQLSKTQEDLEAQVTLVENLRKYVGEQVPSEVHSQTWELERQKLLETMQHLQEDRDSLHATAELLQVRVQSLTHILALQEEELTRKVQPSDSLEPEFTRKCQSLLNRWREKVFALMVQLKAQELEHSDSVKQLKGQVASLQEKVTSQSQEQAILQRSLQDKAAEVEVERMGAKGLQLELSRAQEARRRWQQQTASAEEQLRLVVNAVSSSQIWLETTMAKVEGAAAQLPSLNNRLSYAVRKVHTIRGLIARKLALAQLRQESCPLPPPVTDVSLELQQLREERNRLDAELQLSARLIQQEVGRAREQGEAERQQLSKVAQQLEQELQQTQESLASLGLQLEVARQGQQESTEEAASLRQELTQQQELYGQALQEKVAEVETRLREQLSDTERRLNEARREHAKAVVSLRQIQRRAAQEKERSQELRRLQEEARKEEGQRLARRLQELERDKNLMLATLQQEGLLSRYKQQRLLTVLPSLLDKKKSVVSSPRPPECSASAPVAAAVPTRESIKGSLSVLLDDLQDLSEAISKEEAVCQGDNLDRCSSSNPQMSS
B9: CD5L (protein, UniProt O43866 20-347, looked up)
CD5 antigen-like: SPSGVRLVGGLHRCEGRVEVEQKGQWGTVCDDGWDIKDVAVLCRELGCGAASGTPSGILYEPPAEKEQKVLIQSVSCTGTEDTLAQCEQEEVYDCSHDEDAGASCENPESSFSPVPEGVRLADGPGHCKGRVEVKHQNQWYTVCQTGWSLRAAKVVCRQLGCGRAVLTQKRCNKHAYGRKPIWLSQMSCSGREATLQDCPSGPWGKNTCNHDEDTWVECEDPFDLRLVGGDNLCSGRLEVLHKGVWGSVCDDNWGEKEDQVVCKQLGCGKSLSPSFRDRKCYGPGVGRIWLDNVRCSGEEQSLEQCQHRFWGFHDCTHQEDVAVICSG

biological target: T1, HCV proteins (Hepatitis C virus genotype 1b, UniProt Q9WMX2); test: Validation by Y2H pairwise matrices; type: binding; details: interaction with HCV protein p7;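 further: yeast two-hybrid pairwise tests of interactions first found in Y2H screens of HCV bait proteins against human cDNA libraries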
T1 construct: expressed in transfected cells
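Wherever IMAP Y2H IMAP1 (number of IST) is given: yeast two-hybrid screens using HCV genotype 1b proteins fused to Gal4-DB as baits against prey cDNA libraries from human spleen and foetal brain, IMAP1 via transformation and IMAP2 via mating.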
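Wherever IMAP Y2H IMAP2 (number of IST) is given: yeast two-hybrid screens using HCV genotype 1b proteins fused to Gal4-DB as baits against prey cDNA libraries from human spleen and foetal brain, IMAP1 via transformation and IMAP2 via mating.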
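Wherever Interaction with viral protein is given: yeast two-hybrid screens using HCV genotype 1b proteins fused to Gal4-DB as baits against prey cDNA libraries from human spleen and foetal brain, IMAP1 via transformation and IMAP2 via mating.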
Procedure: A comprehensive interactome map between HCV and cellular proteins was generated by Y2H screens. Twenty seven constructs encoding full-length HCV mature proteins or discrete domains were cloned using a recombination-based cloning system (10) (FIG. 6). Four independent screens were performed with each HCV bait protein, probing two distinct human cDNA libraries (Supplementary Methods). […] Two validation methods were used to assess the confidence of the IMAP Y2H dataset.

Row | Molecule | Y2H matrices
1 | B1 | +

same assay, conditions: validation of interaction with HCV protein NS3

Row | Molecule | Y2H matrices
2 | B2 | +
3 | B3 | +
4 | B4 | +
5 | B5 | +
6 | B6 | +
7 | B7 | +
8 | B8 | +
9 | B9 | +

system: HCV ORFs (Gal4-DB fusions); test: not given; type: binding, HCV genotype 1b, isolate con1; details: human protein listed by gene symbol; the value names the HCV protein it interacts with

Row | Molecule | Interaction with viral protein
10 | B2 | NS3
11 | B3 | NS3
12 | B4 | NS3
13 | B5 | NS3
14 | B6 | NS3
15 | B7 | NS3
16 | B8 | NS3
17 | B9 | NS3

biological target: T2, HCV ORFs (Gal4-DB fusions) (Hepatitis C virus genotype 1b, UniProt Q9WMX2); test: not given; type: binding, HCV genotype 1b, isolate con1; details: HCV protein NS3 as bait; human protein as prey
T2 construct: expressed in transfected cells; host or cells: Saccharomyces cerevisiae MAV203 (IMAP1) / AH109 (IMAP2)

Row | Molecule | IMAP Y2H IMAP1 (number of IST) | IMAP Y2H IMAP2 (number of IST)
18 | B2 | 8 | 
19 | B3 | 1 | 
20 | B4 | 1 | 
21 | B5 | 1 | 4
22 | B6 | 1 | 
23 | B7 | 2 | 
24 | B8 | 1 | 2
25 | B9 | 1 | 1

same assay, conditions: HCV protein p7 as bait; human protein as prey

Row | Molecule | IMAP Y2H IMAP1 (number of IST)
26 | B1 | 1
